# Source: the NTF2 design screens of Basanta et al. (2020)
# Test: protease stability score; higher = more stable; yeast display proteolysis, trypsin and chymotrypsin;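 note: log10 excess protease needed over predicted unfolded state with 0 meaning unfolded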
row,Sequence,protease stability score
1,DEEAQKRAQTFFHILEHGDPKKLSKLFDKDAKFVVGEQRINGMQQYEQWFRDVYKKIRVTMKLVSVHVTGNKIDIKAKVEWHVNGRPLTFDLDIKINFHNGKMKEAVFHVDSDFLRKLKR,0.63
2,DEEAQKTAEDFLRAFQDGNHEQLLKLMDKDAQAQYGDQRLHGREKLRQHIYELLKNIRLEYSIDDVKVDGNNVRIHMQYEAEVNGQPVKDKAKVDIVFHNGKIKTFMVHFSEEYVQTVRS,0.903
3,DEEAQRLLEKAMKALEQNNPQQFVNLLDPNATMIVGDKVYHGRESARKALDDIRSTMRVEVKDVKASAQGDKVQARMRVILDHNGKPSDRTQNITVRVHNGKMTSVELKTDT,0.88
4,DEEAREILRRFFTALNTNDEDQLVELVDKDVKIQVGDKEIHGREELKEHQVESYRRSRVDFRVTDIKASGDKVTAKIVVSRESDGQPRKTTQRMEFRFENGHMKHVHEDSDG,0.064
5,DEEARKEIKKAARAYKTGDWQELVHQMDEDVKVEYGDHKIDGHEQVQKWVDENRKQLTMSVKSLSVELSGNTASVDMKHDARHNGRPRTQTAHIEIQAHNGRLKRVKIEYTQ,-0.178
6,DEEARKLVHRILEAWKHGDEEHFKEQFDPNVDVDVGDKRYHGRHTIATRVQRELDEIDIRIEVHHITVEGDRADMDATVVLNINGKPVHVRVTWVFQITNGVAVYMQLRVSEDQRREQES,1.15
7,DEEARNVFEEILKAIRHGDPDHAKNLADPNARIRVGDKKVDGMEQWATEMHHNWQEIRIHMRITSVDHQGEKVRLHLSRTSNHNGRPRKADIDLEMVATNGKLKSQKHSQKK,0.2
8,DEEARRVWHKLMDALRTGDPEKFRNNADPNARIQYGNETIHGMRDNARTVMTMLHRLDVEWEIKDVKVRPNRIDVIYVLRVHIDGKPYQVHIQADATFHNGKLQSIRKRVDEDEQRKLDR,0.379
9,DEEASKKIKTLVQILNTGDPDKAVKLFDPNARFQVGDKEISGREQFKEVLKKLKHKMRNDIKVKHVEVNNGHANAHAVMTVQVNGQPDHFTFIMRIQWHNGVIEHREVQMDEDELRRYNS,0.339
10,DEEASKQLEEYLRALQTGDSHRVQQLLDPNAKARVGDHTYHGHKEILDWLNKLNEKMRFSIERLSVSVRGDQVEFSFKFDATFNGRPFHASQTMQINVHNGRLKKLTIQLDPEQLDTQRS,-0.088
11,DEEASKRFEKFQHLLRDGNEDRVQKLVDPNVKFDLGSTSLHGMEEVARTLVQRYRSIRIRQEIDTYEVKGDTVRFKQKVQWNINGQPFSDHITFEAHQTNGKFSHVVIRIDPQLLEELRK,0.503
12,DEEATKELREWLHNRTKNNEEELHKYADPNAKFVIGDKTYHGMEEAVESQVHKDKHMNIHIESIHMDADGEHVRASEVVTFEVNGKPFRYSFRYNVTMSNGRLKSQSVRVDERDEEQEKQ,-0.325
13,DEEATKNAERLMRALNTNNEDEVLEMVDKNATMQYGDKTYHGREEISQAVDERRKEMRVHLRRVTVNAQGDKLDIKANMEVDHNGRPIKVNLRIEAKAHNGRITDIKIETDPELTRQRRT,0.539
14,DEEAVEIAHEVNKALNENDEHRLRELFDPNAKIQYGDNVIKGSDNLVKDIRRKSKRMRVRFDVKSIDNQGDKVEIDANYRQTHDGEPRTRKVDAKLRVENGRIKHFSARFTP,-0.044
15,DEEAVKKMMEEWHKALESKNDDQFRKIYKPNVEWVNGDTKRQGQEDVVKMLQKVQKDGAEFQVRDAKVEGDRARMVYDLNVGDKTATFTVEMDAEGGRVDRVQVEIDEKAKKVLTEG,0.294
16,DEEAVKRANEMVEAWEHGDESRFMKLVDPNAQVRVGDKEVHGKEDMNRSIQEESRQLRVHRRVESVESQGNEVKIDLVFTQNVNGQPIQQRVDVVITFRNGKAVDIQLDIPEDQQQQHRR,-0.131
17,DEEAVKRVEHFMKNIREGNEQKAREYADKNATIHVGDKTVHGREDLERWVRQVKEEQRMDVRSFHATADNGNVDVKVTAEIEHNGQPRHHHYTAQFNISNGKIQSVTVDDHP,-0.099
18,DEEAVKTLEHMFEAVRDGNPDEVKKQVDPNVKIEIGDKTYKGKDQWAQDVETKKDEMRFTYHSIEFKNEPNRVKISIDRTETHNGQPRRHHVDMEARVHNGVIVRMKAKESG,-0.124
19,DEEAVNIHKTILEAEQSGDPDKFRQNVDPNVRYRYGDKEIHGREQAAERVKEKRDQARFQFDSIHIKVHGDKARAHFDFVVDHNGNPHRMSFTVVFNAHGDKLEFEIIKFDPRMKKELDS,0.198
20,DEEAVNLINRLLEARKYNDPDSMKRLADENAQFVIGDKEVKGMETYARHVVQTMSRWRIDIKSVHHQSRGSKAEVDVRAKVNVNGRPDTLSITYRAHVTNGRIKELEVRFDPDQHRKLTS,0.019
21,DEEAVRHYHEMVREEETGNEDEAMKYFDPNATVRIGDKTVKGKDSIRKWVRDRRDEMRVEIHQLNVHVSNGQIDVSVDFTKEHNGRPQTMQQKVRVTATNGKIKKVNNHDDG,-0.261
22,DEEAYRLFSEMEKARKDNDEEKLRELADEDVRFEVGDSVIKGMTRWATRVVQTAREQRFSYDIKRWHIEGDKVVVHREVRESHNGQPRSRTVVYRAHVDNGRVKSVTVEDTG,0.158
23,DEEDADRILKLLKKNNFEELARNADPNVHVRIGDTRIHGREEVTSHMKRLTDRIDHVDWRSMSVTGDRVVVRAVYTVNGDRIDFEIEIQFHNGRVVSVRFQARDEDDKHKYRKAEK,0.428
24,DEEDAEDVVRKVNKILRDGDWEKFVNLMDKNAHARIGDQTYSGRSAAEDIARDVHRQVDHVEIKRVEVQGNTVHIDMVVEHNGREEKRVMDLIITNGRLRMVEYQHG,-0.107
25,DEEDAEKILRTAAKAVENGDHKKLVDLGKDGVEYQLADEKAHGPEVMKKVLDYQRKLGVRVELKEVHHEGNKVVTVLVYYHGNTKLEVQIHATADGGKIDRVEVKVPETLKKQLKHG,0.137

row,Sequence,protease stability score
1,DEEDAHEQVHRIVKALETGDPDQVVNQADENVRIHVGEKTVHGQEKVREFVEEYNEQVDDVNVRHVSLDGNKATVTIDIDVNGNKRRVHFRFQFDNGRVQTIRVDTS,0.719
2,DEEDAKNAVRAVEALVTGDPDKMSKLFDKHASVEVGDKRVRGREEIRELAEQLEREMRLRVEIKHVQIQGDKVDVKFDAQRHHNGRPDDNKQTMHLTAHDGRVKNMSITSNG,-0.376
3,DEEDAKRVEEMLEALRTGDWKKATDMADPDARFQIGDKRYHGMHQVAREWKNQYDQMRIEINVKEWNIHNGRVDLKFEQKNDHNGKPDNFRASATFQFHNGQLVEAQYQRDS,0.634
4,DEEDAKVLKQVLENVESGDSKSAETLLDKDVKFVIGDKVLHGRTQYVDRVRRETKRMRVKRQVQHYEVNNGRVHMTIDIQYDIDGKPLRDQITLTAEFHNGRMQSLEVKMDRDFKRKVDK,0.313
5,DEEDANDMRHVWEVLDTGDEERFLQMVDPNVKVVIGDKEYHGRENLRKFLQDQKREMSERIKSIRVHDHNGRIKINAHATNQQNGQPHSFNIDAEAELHNGKITHLNVQTDG,2.17
6,DEEDANNVAEQMMEIVERGDEERASELADPNAKFNIGDKKYEGRENLQKAIRHFRQRADHLEIKSLSVTPGHLKMRFVVKHNGQRNEVVIHVKAHNGKIVEIQVRNS,0.15
7,DEEDANRHVREFWKNVETGNEDDLRDLADPNARLFVGDKKYRGRSEMAKAFKEIRKNVDHFELKSVQEKGDKVKVVAVWNHNGRNVEMVVIFVAHNGRIKEVQVRHK,0.233
8,DEEDAQTLQRVLNHGDPDEWVRLADENVHARVGDKTYSGREHLKTFWHKLREQVDEIEVKSVDISGDRVQADIIYVVNGKRIRVTMVAHVNNGRIKEYKIHYRNEEVRDQLREAQS,0.793
9,DEEDDARKAAEALKAFFKGDPEKFRDLADEDVQVRIGDNVYTGRTEANEAVENFKRQVDHVEFKDLNNRGNKVFADVVVRFNGEDIRVTLYAEVHNGKLKYMQVDPTAQKQLEK,0.65
10,DEEDDKEMEKAIRALLYGDPDKVKKLADPNVNIQYGDKEIQGREEVSKHVDNLRHESRMRVQTMDNDLSGDHAKFDVQYESNHNGKPDTRRVDINAKAHNGHVKHMQWNKDE,-0.25
11,DEEDDKKMAETLKRLHNTGNPDELLKHFDPDAKFQIGEKTVHGREQAQEFMKRIKDRVDHQSVDSIHAHNGQVNVQVKVEINGKTRVVDIVYHFHNGRFKQVVFDPRAIRRMKS,0.175
12,DEEDDKKMNELLKQIQTGNDQKVERLIDPNANMHIGNQDIHGSEDVRKWIEKITKELNITFKVNHFRVKGDKIKIKVKINVKHNGQPDSDTIDLVARVENGHFTRIELHMDEKRWKKQVS,1.15
13,DEEDDKRIAEDVVRQLQTGNPDQARDQADPNAEFRVGDRTIHGRDSFRRLMKETRDEVDKVQVQDFEMHNGHFSVNLVFNINGKEKLVHMSAQFKNGTIKHLSVQDQ,-0.36
14,DEEDDRRTAKRFAENVMKGNQDEARKLADEDATVNVGDQHVHGREELARVMHDLRRQVDHIQLDSLEVQGNKADINVTMRVNGRHVTADITVTVHNGRVKQFSLNPEVAQEIKR,-0.345
15,DEEDEARKMMEELDKAWKTGDSERYAQLLDPNARMVIGDKEYHGRDDVRKWFHEMLRRVDHVQLHLTSIDIRNGKVDARAEVRLNHNGKDTSDTVIFRLQHDNGHIKIRSVKNK,0.251
16,DEEDEARTMADRIRHALENGDEQKFAEQADPNASVRIGDRTWHGRRQISNRLKEERERADHVELEIKSIKLHGDRVKIDFVLEQDINGRHETTQLTMTAELHNGNVRFKMMKEK,-0.332
17,DEEDEDWAEKVATTGNFDEAARDADQNATVKVGDKTWHGREEVTRAMDLLEKQADHVRVSRFKVENGEVNFHVVIEFNGNEIDVTANARFRNGRLTYFSIDARSEHESKSLQKLLE,0.497
18,DEEDEERFEELLKAEEDGDEDRMNELVDENAEFHYGDTVIDGMTDYAREVVHRLNELRWHIDWDDMKQSNGRIQVRAKLVVKVNGTPNNDDVERQVQWDNGRVHQMNERFDSKKHKEMDK,-0.158
19,DEEDEEVVRQWLEAYKTGDPDQLKRNADPNARIQVGDKVLHGMEDAKTELKEQRDHQRFRFHMDSVSVHGNRVEITMKADVDVNGRPIHFTNSFVFTLHNGKIRHIDLQVPEELKHQMTK,-0.125
20,DEEDEKHIDDVLKQGDFDEMARNADKDATVRIGEKEYRGREDVVRMLEIIHKRADEVHVDSVRVTNGRLKMDVVFDVNGVQANVILVINVHNGKIKNITLKYRNEELSRKLDKILR,0.821
21,DEEDEQKIAKDFVRALERGDEDRVMELADPNVRIVIGDKRYEGREELKKLVRTFKKRADHAEVHSIDIRNGTVIVDYVIHHNGRNSQQYLYVSFNNGRIKSMRVQDG,2.07
22,DEEDEQKLAQTLAEVWKQNDEDQFVRLLDKDARVKVGDNEFRGREEAKRMMQELHRRVDHMEIKSVHAKNGSITATLRAEINGKEWRFILEAVYHNGQVKSVHIRDQ,1.68
23,DEEDEREVAKQAVDDLVKGNPDRASELADPNVHVEIGDKTYRGQTQMASALKDFRKNVDSVQIDDLKLHGNKADVDMRVDHNGQQQKYHVIVIVHNGRVSELKIKEK,1.48
24,DEEDERKFAEEFHKVLQTNNEEEIRKMFDPNVTAHVGDKRIHGREEVATVIARLARRADHIRLEHVEVENGRITMTLRADVDGRDVQFRVILTVRNGVVQEVQFDYTSEDQFREIQK,1.59
25,DEEDERRKVQDVAKAIKKGNEKELRKLADEDAKWRVGDTDLHGMERIQKDQATRRREVDNVEIKSVDVHNGRAHVTFVVNHNGKNVEVTNTADFKNGKVKNVQVDPSKVEELKK,-0.328
